Assay results: patent US20140315822A1

What was measured:
[1] = biological target: T1, PDZ domain of the human MAST2 protein (human), Q6P0Q8
T1 chain: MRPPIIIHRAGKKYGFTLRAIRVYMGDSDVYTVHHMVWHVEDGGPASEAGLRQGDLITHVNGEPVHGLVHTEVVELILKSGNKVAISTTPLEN

[2] = biological target: T1, PDZ domain of the human MAST2 protein …; assay: ITC, 298 K, MAST2-PDZ titrated with peptide

For SWEVHGQQTRL (modifications not checked) [454 (Neurovita 3)], the gain of affinity as compared to Neurovita1 [1] was 20 fold, the TΔS (entropy) [2] was 1110 and the n (stoechiometry) [2] was 1.01. It also gave a ΔH (enthalpy) [2] of -8720.
